This is an account of results in patent publication US8975044B2, “Polynucleotides encoding for frizzled-binding agents and uses thereof” (OncoMed Pharmaceuticals, Inc., priority 2008, dated 2015).

For this assay, the target named is T1, FZD8 binding to Wnt3A (Homo sapiens, UniProt Q9H461).
T1 construct: amino acids 1-157 of FZD8 linked in-frame to human IgG1 Fc
T1 sequence (Q9H461 28-157): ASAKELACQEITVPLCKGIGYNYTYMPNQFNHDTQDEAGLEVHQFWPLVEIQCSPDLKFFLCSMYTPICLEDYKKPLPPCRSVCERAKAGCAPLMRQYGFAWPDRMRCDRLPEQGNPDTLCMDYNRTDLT
Nature of the assay: Blocking of FZD8-Fc binding to Wnt3A (protein A depletion, STF293 reporter readout). It counts as biochemical. Conditions: in the absence of 18R8. The procedure:
To assess the ability of 18R8 to block the binding of FZD to Wnt, 2 μl of 1.32 μg/μl soluble FZD8-Fc containing the Fri domain (amino acids 1-157 of FZD8 linked in-frame to human IgG1 Fc) was added to culture medium to bind Wnt3A (added as 20 μl of Wnt3A conditioned medium) either alone or in the presence of the 18R8 IgG antibody (added as 4 μl of 3.71 μg/μl). The mixtures were incubated either alone or in the presence of Protein A sepharose beads (GE Healthcare products; 20 μl of 50% solution in PBS) for two hrs at 4° C. After the incubation, the protein A beads (and any proteins complexed to the protein A beads) in each sample were removed by spinning and the supernatant was assayed for ability to induce 8×TCF luciferase activity. The supernatant was added to STF293 cells, which stably express 8×TCF (eight copies of the TCF-binding domain upstream of a firefly luciferase reporter gene) to measure canonical Wnt signaling levels and which were cultured in DMEM supplemented with antibiotics and 10% FCS. Eighteen hours following treatment of the STF293 cells, luciferase levels were measured using a dual luciferase assay kit (Promega; Madison, Wis.).

B1: Fzd8-Fc: soluble FZD8-Fc containing the Fri domain (amino acids 1-157 of FZD8 linked in-frame to human IgG1 Fc) (protein)
chain: ASAKELACQEITVPLCKGIGYNYTYMPNQFNHDTQDEAGLEVHQFWPLVEIQCSPDLKFFLCSMYTPICLEDYKKPLPPCRSVCERAKAGCAPLMRQYGFAWPDRMRCDRLPEQGNPDTLCMDYNRTDLT
modifications: left off: a dimerising Fc or GST
For the molecule B1, the “effect on Wnt3A-stimulated signaling” value is recorded as “inhibit the ability of Wnt3A to stimulate signaling”.
